Test results: article PMC7124252

Legend:
[1] = target: T1, CTCF (human) (UniProt P49711); test: EMSA; conditions: 10 mM Tris (pH not stated), 50 mM KCl, 5 mM MgCl2, 0.1 mM ZnSO4, 1 mM DTT, 0.1% NP-40, 50 ng/µl poly(dI-dC), 2.5% glycerol, 20 fmol probe, 30 min at 25 C
T1 sequence: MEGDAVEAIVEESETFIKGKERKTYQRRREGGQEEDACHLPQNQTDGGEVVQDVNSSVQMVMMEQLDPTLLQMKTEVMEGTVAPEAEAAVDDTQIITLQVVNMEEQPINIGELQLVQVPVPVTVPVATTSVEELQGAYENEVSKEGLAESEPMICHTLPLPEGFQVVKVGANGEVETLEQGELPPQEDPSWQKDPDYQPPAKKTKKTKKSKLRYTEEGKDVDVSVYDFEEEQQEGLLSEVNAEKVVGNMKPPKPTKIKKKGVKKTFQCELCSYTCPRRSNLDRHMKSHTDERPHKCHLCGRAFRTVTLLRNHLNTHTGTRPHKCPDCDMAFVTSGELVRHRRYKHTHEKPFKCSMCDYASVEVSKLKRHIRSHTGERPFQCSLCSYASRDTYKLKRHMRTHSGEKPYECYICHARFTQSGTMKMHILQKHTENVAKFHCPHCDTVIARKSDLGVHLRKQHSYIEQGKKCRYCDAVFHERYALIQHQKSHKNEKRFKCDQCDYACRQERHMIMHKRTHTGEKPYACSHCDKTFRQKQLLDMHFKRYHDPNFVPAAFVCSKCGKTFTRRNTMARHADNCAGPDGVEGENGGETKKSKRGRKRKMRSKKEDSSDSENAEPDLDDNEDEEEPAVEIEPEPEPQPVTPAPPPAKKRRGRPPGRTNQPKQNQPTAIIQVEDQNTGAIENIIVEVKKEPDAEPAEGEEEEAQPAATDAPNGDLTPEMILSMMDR

[2] = test system: CTCF (human); test: EMSA; parameters: unit not given here; conditions: 10 mM Tris (pH not stated), 50 mM KCl, 5 mM MgCl2, 0.1 mM ZnSO4, 1 mM DTT, 0.1% NP-40, 50 ng/µl poly(dI-dC), 2.5% glycerol, 20 fmol probe, 30 min at 25 C

For “TCAGTGCAGGGTCAAGGTCTACCTTGTATGCAACTCGAGCCGGGCATTTCTTCCCCAACCCCAGAGGTGGGGACATGTGTTTCAGCATCTCAAACATGTCATTGTAACTGATGCGCCCACTGGAAACCCGTTCCAGAGG (double strand) [Cacna1b e37b DNA probe (139 bp)]”, which binding [1] is on record?
Its binding is “no binding”.

With Cacna1b e37a DNA probe (139 bp) as the substance, how does the Kd [2] read?
Its Kd is 0.0461.

How did the binding signal [1] turn out when “ACCTGTAACATTTCCTTTCCAGTTGCCGGATTCATTATAAGGATATGTACAGTTTGTTGCGTTGTATTGCGCCACCCGTTGGCTTAGGAAAGAACTGCCCTCGTAGGTTGGCCTACAAGGTTTGCAACTTCAGAGCCTC (double strand) [Cacna1b e37a DNA probe (139 bp)]” was run?
Its binding signal is “binds”.
